Assays:
BSA = molecular target: T1, BSA (Bos taurus, UniProt P02769); assay: ELISA; 96-well plate coated with 1 μg/ml Ndel1-MBP or BSA; purified nanobodies at 2 μg/ml in 2% skim milk in PBS/0.05% Tween-20, 4 h at room temperature; detected by anti-His-tag antibody; settings: both partners purified
T1 construct: BSA (serum albumin), negative control coating in ELISA

Npm2 (nucleoplasmin) [1] = molecular target: T2, Npm2 (nucleoplasmin) (Xenopus laevis, UniProt P05221); assay: far-Western, overlay or dot blot; immunoblot: Xenopus embryo lysates of different stages on 10% SDS-PAGE, PVDF membrane probed overnight at 4°C with purified His-tagged nanobody (0.2-3 μg/ml), detected by anti-His6 antibody; settings: one partner purified
T2 construct: predicted molecular weight 22 kDa, found as a 170 kDa band in SDS-PAGE; it was not measured here; also called 170 kDa band; source: endogenous, Xenopus laevis embryo lysate; copies: 10
T2 sequence (P05221 whole entry): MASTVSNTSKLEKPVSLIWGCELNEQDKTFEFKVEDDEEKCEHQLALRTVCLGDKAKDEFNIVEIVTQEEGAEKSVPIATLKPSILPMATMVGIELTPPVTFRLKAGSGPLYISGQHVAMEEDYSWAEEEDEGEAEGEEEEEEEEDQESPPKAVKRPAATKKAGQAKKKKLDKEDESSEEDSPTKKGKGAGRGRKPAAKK

Npm2 (nucleoplasmin) [2] = molecular target: T2, Npm2 (nucleoplasmin); assay: affinity purification with mass spectrometry; purified His-tagged nanobody incubated with Xenopus embryo lysate (1% Triton X100 lysis buffer), captured on His60 Ni Superflow resin overnight at 4°C, SDS-PAGE, SimplyBlue staining, 170 kDa band cut out for LC-MS/MS; settings: one partner purified

T1 sequence (P02769 25-607): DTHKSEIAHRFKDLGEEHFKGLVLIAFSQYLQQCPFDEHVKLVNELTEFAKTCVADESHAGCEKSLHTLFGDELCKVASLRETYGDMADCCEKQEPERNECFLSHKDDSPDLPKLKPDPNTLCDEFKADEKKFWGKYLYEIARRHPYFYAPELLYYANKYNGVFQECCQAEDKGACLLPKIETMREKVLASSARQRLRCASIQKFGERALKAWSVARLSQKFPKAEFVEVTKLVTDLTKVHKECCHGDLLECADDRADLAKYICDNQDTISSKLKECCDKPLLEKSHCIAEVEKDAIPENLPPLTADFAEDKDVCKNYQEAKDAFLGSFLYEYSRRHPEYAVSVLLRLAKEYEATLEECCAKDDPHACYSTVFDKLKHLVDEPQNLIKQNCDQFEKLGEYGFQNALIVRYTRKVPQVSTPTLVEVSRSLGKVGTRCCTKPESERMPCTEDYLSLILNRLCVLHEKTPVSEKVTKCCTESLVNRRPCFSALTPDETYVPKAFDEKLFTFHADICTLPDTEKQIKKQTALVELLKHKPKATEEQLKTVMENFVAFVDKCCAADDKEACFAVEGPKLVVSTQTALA

| Binder | binding result (BSA) | also measured |
| --- | --- | --- |
| NbH3 (VHH, nanobody from the semi-synthetic non-immune llama library Nomad#1; His6-tagged alkaline phosphatase fusion from pecan16; source: E. coli BL21Star periplasm (pecan16), purified (IMAC)) VHH: EVKLQESGGGLAQSGGSLRLSCAPQLGAHTIVAMGWYRQPPDSQREFVAMLFANGITRYNEAVKGRFTISRDDAKNTMYLQMNNLKPEDTAVYYCKIYDHSIMTDYWGQGTQVTVSS | no binding (tested: 2 μg/ml) |  |
| NbE9 (VHH, nanobody from the semi-synthetic non-immune llama library Nomad#1; His6-tagged alkaline phosphatase fusion from pecan16; also called AP-NbE9; 6His-AP-NbE9; source: E. coli BL21Star periplasm (pecan16), purified (IMAC); not shown: alkaline phosphatase, C-terminal, kept) VHH: QVKLQESGGGSVQHGGSLRLSCVASGLSFSNHWMYWVRQAQGKGLEWVSSINPSGSFTSYTDSAKGRFTISKANDGHTVYLQMNNLKPEDTGVYYCGLGSWSELEYSYSYWGRGTQVTVSS | no binding (tested: 2 μg/ml) |  |
| NbE7 (VHH, nanobody from the semi-synthetic non-immune llama library Nomad#1; His6-tagged alkaline phosphatase fusion from pecan16; also called AP-NbE7; source: E. coli BL21Star periplasm (pecan16), purified (IMAC); not shown: alkaline phosphatase, C-terminal, kept) VHH: KVQLQASGGGLVQPGGSLQLSCVASGLSFSNYWMYWVRQAQGKGLEWVSSINPSGSFTSYTDSAKGRFTISKANDGHTVYLQMNNLKPEDTGVYYCGLGSWSELEYSYSYWGRGTQVTVSS | no binding (tested: 2 μg/ml) |  |
| NbE2 (VHH, nanobody from the semi-synthetic non-immune llama library Nomad#1; His6-tagged alkaline phosphatase fusion from pecan16; source: E. coli BL21Star periplasm (pecan16), purified (IMAC)) VHH: QVKLQQSGGGSVQVGGSLRLSCTASGSAFIINTMSWYRRAPGKQRELVATITRRGTTNYADSVKGRFTISRDNAENTVDLHMNSLKPEDTAVYYCKGYRADWMTDYWGQGTQVTVSS | no binding (tested: 2 μg/ml) |  |
| NbN39 (VHH, nanobody from the immune llama library; Nucleus-staining nanobody; used as negative control in the Ndel1 ELISA; source: bacterial periplasm (pecan126 phagemid clone), purified (IMAC)) VHH: VQLQASGGGLVQAGGSLRLSCTFSGGTFNGRNMGWFRQAPGKEREFAATISASGGRTYYAESVLGRFTISRDNARNTVYLQMNNLTPEDTAVYFCAAKRPTRLSENYDYKTENDYDYWGQGTQVTVS |  | binding result (Npm2 (nucleoplasmin) [1]): binds |
| NbG12 (VHH, nanobody from the immune llama library; Nucleus-staining nanobody; source: bacterial periplasm (pecan126 phagemid clone), purified (His60-Ni-Superflow resin)) VHH: VQLQASGGGLVQAGSSRRLYCAFSGDTFNGRPMGWFRQAPGKEREFVATISASGGRTYYAGSVLGRFTISRDNTRNTVSLQMNNLTPEDTAVYYCAAKRPTALSDNYDYKTENEYNYWGQGTQVTVS |  | binding result (Npm2 (nucleoplasmin) [2]): binds |
| NbG6 (VHH, nanobody from the semi-synthetic non-immune llama library Nomad#1; His6-tagged alkaline phosphatase fusion from pecan16; source: E. coli BL21Star periplasm (pecan16), purified (IMAC)) VHH: DVQLQASGGGLVQPGASLRLSCVSTRNTFSIDPMSWYRRAPGKGLEWVSGISNRGGSTSYADSVKGRFTISRDNIKSTLYLQMNSLKPEDTAVYYCNADASRWGSWGQGTQVTVSS | no binding (tested: 2 μg/ml) |  |

Source: article PMC6497274, “Isolation of nanobodies against Xenopus embryonic antigens using immune and non-immune phage display libraries” (PLoS ONE, 2019)
